Test system: Escherichia coli TOP10
Test: shrunken log2 fold change of peptide-encoding DNA abundance (4.5 h post-induction vs induction); higher = less antimicrobial activity (less host growth inhibition)
Conditions: time post-induction: 4.5 h; library: site-saturation at positions 5, 18, 19, 20
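Further: peptides expressed intracellularly from a pBAD plasmid library in pooled LB shake-flask culture, induced with 0.3% L-arabinose, DNA abundance read by NGS, three biological replicates, DESeq2 with apeglm shrinkage.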

| Sequence | shrunken log2 fold change |
| --- | --- |
| RRIRLRPPRLPRPRPRPAVCPRP | 0.0348 |
| RRIRLRPPRLPRPRPRPAVGPRP | -0.0315 |
| RRIRLRPPRLPRPRPRPAVVPRP | 0.028 |
| RRIRLRPPRLPRPRPRPAWVPRP | -0.0218 |
| RRIRLRPPRLPRPRPRPAYTPRP | -0.203 |
| RRIRLRPPRLPRPRPRPCCNPRP | -0.155 |
| RRIRLRPPRLPRPRPRPCCSPRP | -0.144 |
| RRIRLRPPRLPRPRPRPCCTPRP | -0.0665 |
| RRIRLRPPRLPRPRPRPCDFPRP | 0.092 |
| RRIRLRPPRLPRPRPRPCDWPRP | 0.201 |
| RRIRLRPPRLPRPRPRPCEVPRP | 0.0632 |
| RRIRLRPPRLPRPRPRPCFIPRP | 0.554 |
| RRIRLRPPRLPRPRPRPCFKPRP | -0.315 |
| RRIRLRPPRLPRPRPRPCFLPRP | -0.337 |
| RRIRLRPPRLPRPRPRPCFVPRP | -0.392 |
| RRIRLRPPRLPRPRPRPCGHPRP | -0.0228 |
| RRIRLRPPRLPRPRPRPCGQPRP | -0.0417 |
| RRIRLRPPRLPRPRPRPCHIPRP | -0.113 |
| RRIRLRPPRLPRPRPRPCHSPRP | -0.011 |
| RRIRLRPPRLPRPRPRPCHYPRP | -0.0212 |
| RRIRLRPPRLPRPRPRPCIFPRP | -0.463 |
| RRIRLRPPRLPRPRPRPCKDPRP | -0.194 |
| RRIRLRPPRLPRPRPRPCLPPRP | -0.0626 |
| RRIRLRPPRLPRPRPRPCNLPRP | 0.034 |
| RRIRLRPPRLPRPRPRPCNMPRP | 0.0385 |

| Sequence | shrunken log2 fold change |
| --- | --- |
| RRIRLRPPRLPRPRPRPCNRPRP | 0.214 |
| RRIRLRPPRLPRPRPRPCNSPRP | 0.165 |
| RRIRLRPPRLPRPRPRPCQEPRP | -0.0108 |
| RRIRLRPPRLPRPRPRPCRFPRP | -0.226 |
| RRIRLRPPRLPRPRPRPCSHPRP | -0.226 |
| RRIRLRPPRLPRPRPRPCSQPRP | -0.0964 |
| RRIRLRPPRLPRPRPRPCTIPRP | -0.298 |
| RRIRLRPPRLPRPRPRPDDYPRP | -0.247 |
| RRIRLRPPRLPRPRPRPDEGPRP | -0.018 |
| RRIRLRPPRLPRPRPRPDENPRP | 0.087 |
| RRIRLRPPRLPRPRPRPDFTPRP | 0.102 |
| RRIRLRPPRLPRPRPRPDHGPRP | -0.147 |
| RRIRLRPPRLPRPRPRPDIWPRP | -0.137 |
| RRIRLRPPRLPRPRPRPDIYPRP | -0.458 |
| RRIRLRPPRLPRPRPRPDKWPRP | 0.0575 |
| RRIRLRPPRLPRPRPRPDNWPRP | -0.0493 |
| RRIRLRPPRLPRPRPRPDPWPRP | 0.0779 |
| RRIRLRPPRLPRPRPRPDSAPRP | 0.0605 |
| RRIRLRPPRLPRPRPRPDSVPRP | 0.0031 |
| RRIRLRPPRLPRPRPRPDTMPRP | -0.286 |
| RRIRLRPPRLPRPRPRPDTSPRP | -0.114 |
| RRIRLRPPRLPRPRPRPDTTPRP | -0.138 |
| RRIRLRPPRLPRPRPRPDTYPRP | -0.93 |
| RRIRLRPPRLPRPRPRPDVDPRP | 0.0667 |
| RRIRLRPPRLPRPRPRPDVKPRP | -0.488 |

| Sequence | shrunken log2 fold change |
| --- | --- |
| RRIRLRPPRLPRPRPRPDVSPRP | 0.0432 |
| RRIRLRPPRLPRPRPRPDWKPRP | 0.0269 |
| RRIRLRPPRLPRPRPRPDWTPRP | 0.000807 |
| RRIRLRPPRLPRPRPRPDYEPRP | -0.645 |
| RRIRLRPPRLPRPRPRPDYWPRP | -0.596 |
| RRIRLRPPRLPRPRPRPECRPRP | 2.41 |
| RRIRLRPPRLPRPRPRPEDEPRP | 0.00911 |
| RRIRLRPPRLPRPRPRPEDTPRP | -0.00686 |
| RRIRLRPPRLPRPRPRPEEFPRP | -0.0121 |
| RRIRLRPPRLPRPRPRPEEKPRP | 0.0262 |
| RRIRLRPPRLPRPRPRPEGKPRP | -0.00133 |
| RRIRLRPPRLPRPRPRPEHFPRP | 0.0339 |
| RRIRLRPPRLPRPRPRPEHMPRP | -0.336 |
| RRIRLRPPRLPRPRPRPEIEPRP | -0.0912 |
| RRIRLRPPRLPRPRPRPEMGPRP | 0.144 |
| RRIRLRPPRLPRPRPRPEMPPRP | 0.365 |
| RRIRLRPPRLPRPRPRPEMSPRP | -0.0316 |
| RRIRLRPPRLPRPRPRPENPPRP | -0.173 |
| RRIRLRPPRLPRPRPRPENWPRP | 0.046 |
| RRIRLRPPRLPRPRPRPEPIPRP | 0.0321 |
| RRIRLRPPRLPRPRPRPEPNPRP | 0.0389 |
| RRIRLRPPRLPRPRPRPEPYPRP | -0.305 |
| RRIRLRPPRLPRPRPRPEQGPRP | 1.07 |
| RRIRLRPPRLPRPRPRPEQRPRP | 0.0422 |
| RRIRLRPPRLPRPRPRPERMPRP | -0.0208 |
